Assay [1] addresses TIGIT on human CMV pp65-specific CD8+ T cells (human) (UniProt Q495A1). In words: flow cytometry on CMV pp65-specific CD8+ T cells, day 11, against an isotype control.
The target in assay [2] is T1, Human PVRIG-HIS (prepared in-house) (human, UniProt Q6DKI7 41-171, limits assumed).
T1 construct: In-house protein; also called PVRIG-His (Compugen, lot 20170623); biotinylated PVRIG-His; not shown: His tag
T1 sequence (looked up): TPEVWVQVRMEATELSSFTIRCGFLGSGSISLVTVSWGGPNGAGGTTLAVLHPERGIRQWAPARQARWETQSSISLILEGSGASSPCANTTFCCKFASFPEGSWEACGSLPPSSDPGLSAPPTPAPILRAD
In words: SPR (ProteOn XPR 36, 22 C); BsAb captured on anti-human Fc, PVRIG-HIS as analyte, 1:1 fit.

Assay [3] addresses T2, Human TIGIT-HIS monomer (Sino Biological) (human, UniProt Q495A1 22-141).
T2 construct: Bought protein; also called TIGIT-His (Sino Biological cat #10917-H08H); biotinylated TIGIT-His; not shown: His tag
T2 sequence (looked up): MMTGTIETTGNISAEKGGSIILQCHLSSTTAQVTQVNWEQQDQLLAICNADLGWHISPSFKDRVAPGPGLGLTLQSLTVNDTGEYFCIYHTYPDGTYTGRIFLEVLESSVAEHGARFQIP
In words: SPR (ProteOn XPR 36, 22 C); BsAb captured on anti-human Fc, TIGIT-HIS monomer as analyte; value fixed, not fitted, because too little dissociation was seen in 15 min.

The target in assay [4] is T3, PVRIG on human CMV pp65-specific CD8+ T cells (human, UniProt Q6DKI7 41-326).
T3 sequence (looked up): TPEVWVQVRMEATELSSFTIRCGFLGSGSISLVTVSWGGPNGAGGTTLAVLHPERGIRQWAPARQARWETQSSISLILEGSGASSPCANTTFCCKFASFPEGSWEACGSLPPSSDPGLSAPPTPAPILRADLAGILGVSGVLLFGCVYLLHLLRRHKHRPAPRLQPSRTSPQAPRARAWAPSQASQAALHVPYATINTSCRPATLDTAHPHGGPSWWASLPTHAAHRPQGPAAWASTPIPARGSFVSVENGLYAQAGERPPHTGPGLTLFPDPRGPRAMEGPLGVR
Briefly: cell-based or functional assay.

Assay [5] deals with T4, TIGIT on human CMV pp65-specific CD8+ T cells (human, UniProt Q495A1 22-244).
T4 sequence (looked up): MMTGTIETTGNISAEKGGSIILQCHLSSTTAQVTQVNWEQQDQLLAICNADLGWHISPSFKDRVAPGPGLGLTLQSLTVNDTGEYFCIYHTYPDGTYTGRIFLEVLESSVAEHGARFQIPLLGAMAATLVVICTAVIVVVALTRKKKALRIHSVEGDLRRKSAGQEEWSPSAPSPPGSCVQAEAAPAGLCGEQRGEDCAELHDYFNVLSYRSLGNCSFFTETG
In words: cell-based or functional assay.

Assay [6] deals with T2, Human TIGIT-HIS monomer (Sino …). Briefly: SPR (ProteOn XPR 36, 22 C); BsAb captured on anti-human Fc, TIGIT-HIS monomer as analyte, 1:1 fit with kd held constant; rough estimate.
Assay [7] shares this target. Briefly: SPR (ProteOn XPR 36, 22 C); BsAb captured on anti-human Fc, TIGIT-HIS monomer as analyte; kd/ka with kd held constant; rough estimate.

As to “anti-TIGIT (clone: MBSA43)-allophycocyanin (APC; e-Bioscience) (antibody)”, in assay [1], the MFIr (MFI of target antibody divided by MFI of control antibody) came to 4 fold.

B1: CHA.7.518.1.H4(S241P)/CPA.9.086 bispecific antibody (bispecific antibody, human IgG4 S228P, kappa, lambda)
heavy 1: QVQLVQSGAEVKKPGASVKVSCKASGYTFTDYNINWVRQAPGQGLEWMGYIYPYIGGSGYAQKFQGRVTMTRDTSTSTVYMELSSLRSEDTAVYYCAREDKTARNAMDYWGQGTLVTVSSASTKGPSVFPLAPCSRSTSESTAALGCLVKDYFPEPVTVSWNSGALTSGVHTFPAVLQSSGLYSLSSVVTVPSSSLGTKTYTCNVDHKPSNTKVDKRVESKYGPPCPPCPAPEFLGGPSVFLFPPKPKDTLMISRTPEVTCVVVDVSQEDPEVQFNWYVDGVEVHNAKTKPREEQFNSTYRVVSVLTVLHQDWLNGKEYKCKVSNKGLPSSIEKTISKAKGQPREPQVYTLPPCQDELTKNQVSLWCLVKGFYPSDIAVEWESNGQPENNYKTTPPVLDSDGSFFLYSRLTVDKSRWQEGNVFSCSVMHEALHNHYTQKSLSLSPGK
light 1: DIQMTQSPSSLSASVGDRVTITCRVSENIYSNLAWYQQKPGKAPKLLIYEATNLAEGVPSRFSGSGSGTDFTLTISSLQPEDFATYYCQHFWGTPYTFGQGTKLEIKRTVAAPSVFIFPPSDEQLKSGTASVVCLLNNFYPREAKVQWKVDNALQSGNSQESVTEQDSKDSTYSLSSTLTLSKADYEKHKVYACEVTHQGLSSPVTKSFNRGEC
heavy 2: EVQLVETGGGLIQPGRSLRLSCAASGFTFSSYAMHWVRQAPGKGLEWVAVISYAGEVKYYADSVKGRFTISRDNSKNTLYLQMNSLRAEDTAVYYCARDPLPLHYYGMDVWGQGTTVTVSSASGQPKAAPSVTLFPPSSEELQANKATLVCLISDFYPGAVTVAWKADSSPVKAGVETTTPSKQSNNKYAASSYLSLTPEQWKSHRSYSCQVTHEGSTVEKTVAPTECSESKYGPPCPPCPAPEFLGGPSVFLFPPKPKDTLMISRTPEVTCVVVDVSQEDPEVQFNWYVDGVEVHNAKTKPREEQFNSTYRVVSVLTVLHQDWLNGKEYKCKVSNKGLPSSIEKTISKAKGQPREPQVCTLPPSQDELTKNQVSLSCAVKGFYPSDIAVEWESNGQPENNYKTTPPVLDSDGSFFLVSRLTVDKSRWQEGNVFSCSVMHEALHNHYTQKSLSLSPGK
light 2: QSALTQPRSASGNPGQRVTISCSGSSSNMGRRPVNWYQQIPGTAPKLLIYSQNQRPSGVPDRFSGSQSGTSASLTISGLQSEDEAEYFCAVWDDIGRVLQLGGGTQLAVLSSASTKGPSVFPLAPSSKSTSGGTAALGCLVKDYFPEPVTVSWNSGALTSGVHTFPAVLQSSGLYSLSSVVTVPSSSLGTQTYICNVNHKPSNTKVDKKVEPKSC
notes: also called CHA.7.518.1.H4(S241P)/CPA.9.086 BsAb; TIGIT-PVRIG Bispecific antibody
As to B1, the equilibrium dissociation constant (Kd) in assay [2] is 0.187 nM; in assay [7] it was no more than 0.0026 nM. Also, the koff in assay [2] was 0.00024 s⁻¹; in assay [3], no more than 1e-05 s⁻¹. Also, the results for the on-rate (kon) in assay [2] and in assay [6] were 1.3e+06 M⁻¹ s⁻¹ and 3.9e+06 M⁻¹ s⁻¹, respectively. Also, the “IFN-γ production EC50, donor 4 (both receptors blocked)” value in assay [4] and in assay [5] was 0.36 nM in each case. For the same molecule, the “IFN-γ production EC50, donor 72 (both receptors blocked)” value in assay [4] and in assay [5] was 0.53 nM in each case.

The values are drawn from patent US20190382477A1 (COMPUGEN, published 2019).
